Reference: patent publication US20240270860A1

Assays:
Experiment in all cases: peptide-array ELISA (CYS.S) [Continued]
2…2RPGWY2AL = target: T1, 2…2RPGWY2AL
T1 sequence (peptide, 2 = Cys(ACM)): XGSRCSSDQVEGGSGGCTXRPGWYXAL

2…2RPGWY2A = target: T2, 2…2RPGWY2A
T2 sequence (peptide, 2 = Cys(ACM)): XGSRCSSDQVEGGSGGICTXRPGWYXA

2…2RPGWY = target: T3, 2…2RPGWY
T3 sequence (peptide, 2 = Cys(ACM)): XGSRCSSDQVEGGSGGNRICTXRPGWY

[1] = target: T4, 2…
T4 sequence (peptide, 2 = Cys(ACM)): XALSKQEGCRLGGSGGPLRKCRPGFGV

E2LS2…2RPGWY2 = target: T5, E2LS2…2RPGWY2
T5 sequence (peptide, 2 = Cys(ACM)): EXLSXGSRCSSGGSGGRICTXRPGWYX

E2LS2…2RPGWY = target: T6, E2LS2…2RPGWY
T6 sequence (peptide, 2 = Cys(ACM)): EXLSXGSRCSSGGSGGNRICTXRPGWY

[2] = target: T7, EQNRI2…
T7 sequence (peptide, 2 = Cys(ACM)): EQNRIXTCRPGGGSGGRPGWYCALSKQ

LS2…2RPGWY2AL = target: T8, LS2…2RPGWY2AL
T8 sequence (peptide, 2 = Cys(ACM)): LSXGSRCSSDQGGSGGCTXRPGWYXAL

LS2…2RPGWY2 = target: T9, LS2…2RPGWY2
T9 sequence (peptide, 2 = Cys(ACM)): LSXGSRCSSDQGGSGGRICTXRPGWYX

LS2…2RPGWY = target: T10, LS2…2RPGWY
T10 sequence (peptide, 2 = Cys(ACM)): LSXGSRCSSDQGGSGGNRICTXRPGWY

[3] = target: T11, NRI2…
T11 sequence (peptide, 2 = Cys(ACM)): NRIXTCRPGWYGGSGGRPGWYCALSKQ

PE2LS2…2RPGWY2 = target: T12, PE2LS2…2RPGWY2
T12 sequence (peptide, 2 = Cys(ACM)): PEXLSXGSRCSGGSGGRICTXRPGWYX

PE2LS2…2RPGWY = target: T13, PE2LS2…2RPGWY
T13 sequence (peptide, 2 = Cys(ACM)): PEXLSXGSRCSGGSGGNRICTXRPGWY

[4] = target: T14, QEGCRL2…2…
T14 sequence (peptide, 2 = Cys(ACM)): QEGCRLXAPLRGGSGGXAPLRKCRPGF

[5] = target: T15, REQNRI2…
T15 sequence (peptide, 2 = Cys(ACM)): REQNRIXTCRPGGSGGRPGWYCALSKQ

S2…2RPGWY2AL = target: T16, S2…2RPGWY2AL
T16 sequence (peptide, 2 = Cys(ACM)): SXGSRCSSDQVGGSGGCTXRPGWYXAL

S2…2RPGWY2 = target: T17, S2…2RPGWY2
T17 sequence (peptide, 2 = Cys(ACM)): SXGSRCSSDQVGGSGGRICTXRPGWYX

S2…2RPGWY = target: T18, S2…2RPGWY
T18 sequence (peptide, 2 = Cys(ACM)): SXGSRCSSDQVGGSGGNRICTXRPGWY

[6] = target: T19, SKQEGCRL2…
T19 sequence (peptide, 2 = Cys(ACM)): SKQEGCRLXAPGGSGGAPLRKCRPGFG

[7] = target: T20, SKQEGCRL2…; remark: listed apart in the source
T20 sequence (peptide, 2 = Cys(ACM)): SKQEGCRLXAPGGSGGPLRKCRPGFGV

VPE2LS2…2RPGWY2A = target: T21, VPE2LS2…2RPGWY2A
T21 sequence (peptide, 2 = Cys(ACM)): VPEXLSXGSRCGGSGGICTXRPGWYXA

VPE2LS2…2RPGWY2 = target: T22, VPE2LS2…2RPGWY2
T22 sequence (peptide, 2 = Cys(ACM)): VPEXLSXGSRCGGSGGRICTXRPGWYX

[8] = target: T23, WY2…
T23 sequence (peptide, 2 = Cys(ACM)): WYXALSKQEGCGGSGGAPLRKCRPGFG

[9] = target: T24, WY2…; remark: listed apart in the source
T24 sequence (peptide, 2 = Cys(ACM)): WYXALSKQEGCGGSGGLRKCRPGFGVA

[10] = target: T25, Y2…2…
T25 sequence (peptide, 2 = Cys(ACM)): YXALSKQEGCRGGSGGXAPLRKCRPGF

[11] = target: T26, Y2…
T26 sequence (peptide, 2 = Cys(ACM)): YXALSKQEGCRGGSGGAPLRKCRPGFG

[12] = target: T27, …2AGGSGG2…
T27 sequence (peptide, 2 = Cys(ACM)): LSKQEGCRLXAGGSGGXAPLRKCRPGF

…2GGSGGCT2RPGWY2AL = target: T28, …2GGSGGCT2RPGWY2AL
T28 sequence (peptide, 2 = Cys(ACM)): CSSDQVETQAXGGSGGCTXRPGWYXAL

…2GGSGGICT2RPGWY2A = target: T29, …2GGSGGICT2RPGWY2A
T29 sequence (peptide, 2 = Cys(ACM)): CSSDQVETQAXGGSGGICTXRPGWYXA

…2RPGWY2AL = target: T30, …2RPGWY2AL
T30 sequence (peptide, 2 = Cys(ACM)): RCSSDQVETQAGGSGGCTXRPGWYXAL

…2RPGWY2A [13] = target: T31, …2RPGWY2A
T31 sequence (peptide, 2 = Cys(ACM)): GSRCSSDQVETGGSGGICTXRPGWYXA

…2RPGWY2A [14] = target: T32, …2RPGWY2A; remark: listed apart in the source
T32 sequence (peptide, 2 = Cys(ACM)): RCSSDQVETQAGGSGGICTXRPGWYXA

…2RPGWY2 [15] = target: T33, …2RPGWY2
T33 sequence (peptide, 2 = Cys(ACM)): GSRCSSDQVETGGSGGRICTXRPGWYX

…2RPGWY2 [16] = target: T34, …2RPGWY2; remark: listed apart in the source
T34 sequence (peptide, 2 = Cys(ACM)): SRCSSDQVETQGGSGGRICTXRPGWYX

…2RPGWY = target: T35, …2RPGWY
T35 sequence (peptide, 2 = Cys(ACM)): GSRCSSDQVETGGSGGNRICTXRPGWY

…2…2RPGWY2 = target: T36, …2…2RPGWY2
T36 sequence (peptide, 2 = Cys(ACM)): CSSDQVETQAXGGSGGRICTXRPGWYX

[17] = target: T37, …2…
T37 sequence (peptide, 2 = Cys(ACM)): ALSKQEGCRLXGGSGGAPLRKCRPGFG

[18] = target: T38, …2…; remark: listed apart in the source
T38 sequence (peptide, 2 = Cys(ACM)): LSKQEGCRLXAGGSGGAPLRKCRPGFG

- Raw luminescence data (2…2RPGWY2AL): 480
- Raw luminescence data (2…2RPGWY2A): 402
- Raw luminescence data (2…2RPGWY): 588
- Raw luminescence data [1]: 414
- Raw luminescence data (E2LS2…2RPGWY2): 478
- Raw luminescence data (E2LS2…2RPGWY): 389
- Raw luminescence data [2]: 263
- Raw luminescence data (LS2…2RPGWY2AL): 510
- Raw luminescence data (LS2…2RPGWY2): 546
- Raw luminescence data (LS2…2RPGWY): 822
- Raw luminescence data [3]: 426
- Raw luminescence data (PE2LS2…2RPGWY2): 585
- Raw luminescence data (PE2LS2…2RPGWY): 928
- Raw luminescence data [4]: 570
- Raw luminescence data [5]: 228
- Raw luminescence data (S2…2RPGWY2AL): 538
- Raw luminescence data (S2…2RPGWY2): 465
- Raw luminescence data (S2…2RPGWY): 666
- Raw luminescence data [6]: 220
- Raw luminescence data [7]: 369
- Raw luminescence data (VPE2LS2…2RPGWY2A): 540
- Raw luminescence data (VPE2LS2…2RPGWY2): 478
- Raw luminescence data [8]: 534
- Raw luminescence data [9]: 336
- Raw luminescence data [10]: 308
- Raw luminescence data [11]: 553
- Raw luminescence data [12]: 529
- Raw luminescence data (…2GGSGGCT2RPGWY2AL): 265
- Raw luminescence data (…2GGSGGICT2RPGWY2A): 454
- Raw luminescence data (…2RPGWY2AL): 319
- Raw luminescence data (…2RPGWY2A [13]): 403
- Raw luminescence data (…2RPGWY2A [14]): 372
- Raw luminescence data (…2RPGWY2 [15]): 594
- Raw luminescence data (…2RPGWY2 [16]): 568
- Raw luminescence data (…2RPGWY): 587
- Raw luminescence data (…2…2RPGWY2): 597
- Raw luminescence data [17]: 321
- Raw luminescence data [18]: 253
B1: antagonistic TNFR2 antibody TNFRAB1 (antibody, V domains shown)
VH: EVQLQESGGGLVKPGGSLKLSCAASGFTFSSYVMSWVRQTPEKRLEWVATISSGGSYTYYPDSVKGRFTISRDNAKNTLYLQMSSLRSEDTAMYYCARQRVDGYSSYWYFDVWGAGTAVTVSS
VL: DIVLTQSPAIMSASPGEKVTITCSASSSVYYMYWFQQKPGTSPKLWIYSTSNLASGVPVRFSGSGSGTSYSLTISRMEAEDAATYYCQQRRNYPYTFGGGTKLEIKR
